Test results from patent US20250027068.
Residue numbers refer to the chain shown, from its start.

B1: PRT-289 (protein)
chain: MVTSVWTKGVTPPADFTQGEDVFHAPYVANQGWYDITKTFNGKDDLLCGAATAGNMLHWWFDQNKEYIEAYLKKHPEKQKIMFGDQELLDVRKAINTKGSQKNSELFNYFRDKAFPNLSARRLGVMPDLVLDMFINGYYLNVTKTQTTDVNRTYQEKDKRGGIFDAVFTRGDQSKLLTSRHDFKEKGLKEISDLIKQELTEGKALGLSHTYANVGINHVINLWGADFDSDGNLKAIYVTDSDSNASIGMKKYFVGVNSSGKVAISAKEIKEDNIGAQVLGLFTLSTGQDIWNQTN
B2: PRT-305 (protein)
chain: B1 chain with A14T, T17I, Q18K, V28K, N30G, T39E, G215R, N217G, F253G, S259A
B3: PRT-297 (protein)
chain: B1 chain with V28D, T39E, G215R, N217G, F253G, S259A
B4: PRT-321 (protein)
chain: MTITSVWTKGVTPPTPEDFRENNEDVLHAPYVANQGWYDITKTFDGKDNLLCGAATAGNMLHWWFDQNKEEIERYLKKHPEKQKIIFGNQELFDVKAAIDTKDSQTNSKLFDYFRDKAFPNLSARQLGVMPDLVLDMFINGYYLNLPKTQSTDVNRPYQDKDKRGGIFDAVFTRGDQTTLLTARHDLKNKGLNEISDLIKQELTEGKALALSHTYANVRINHVINLWGADFDAEGNLIAIYVTDSDANASIGMKKYAVGVNANGKVAISAKKIEGDNIGAQVLGLFTLSTGQDQWQKLS
B5: PRT-329 (protein)
chain: B4 chain with G88N, D112N, N121G, M130F, P147G, D176V, A257F, V260R, T290L, Q294I
B6: PRT-23 (protein)
chain: MANQEIRYSEVTPYHVTSVWTKGVTPPANFTQGEDVFHAPYVANQGWYDITKTFNGKDDLLCGAATAGNMLHWWFDQNKDQIERYLKEHPEKQKINFNGEQMFDVKEAIDTKNSQTDSKLFEYFKEKAFPYLSTKHLGVFPDHVIDMFINGYRLSLTNHGPTPVKEGSKDPRGGIFDAVFTRGDQSKLLTSRHDFKEKNLKEISDLIKKELTEGKALGLSHTYANVRINHVINLWGADFDSNGNLEAIYVTDSDSNASIGMKKYFVGVNSAGKVAISAKEIKEDNIGAQVLGLFTLSTGQDIWNQTN
B7: PRT-24 (protein)
chain: B6 chain with N113D, I145L, N199T, E246K
B8: PRT-265 (protein)
chain: MVTSVWTKGVTPPTNFTYGEDVLHAPYVANQGWYDITKLFNGKDNLLCGAATAGNMLHWWFDQNKEQIENYLKKHPEKQKINFNGEQLFDVKEAIDTKDSQLDSKLFEYFLEKAFPYLSTKHLGVFPDHVIDMFINGYRLSLTNHGPTPVKRGSKDKRGGIFDAVFTRGVQSKLLTNRHDFKEKTLKEISDLIKQELTEGKALGISHTYANVRINHVINLWGADFDAEGNLEAIAVTDSDTNASIGMKKYFVGVNSSGKVAISAKEIEEDNIGAQVLGLFTLSTGQDIWNQTN
B9: PRT-242 (protein)
chain: MVTSVWTKGVTPPANFTQGEDVFHAPYVANQGWYDITKTFNGKDDLLCGAATAGNMLHWWFDQNKDQIKRYLEEHPEKQKINFNGEQMFDVKEAIDTKNHQLDSKLFDYFKEKAFPNLSTKHLGVFPDHVIDMFINGYRLSLLNHGPTPVKEGSKDPRGGIFDAVFTRGDQSKLLTSRHDFKEKNLKEISDLIKKELTEGKALGLSHTYANVRINHVINLWGADFDSNGNLKAIYVTDSDSNPSIGMKKYFVGVNSSGKVAISAKEIKEDNIGAQVLGLFTLSTGQDSWNQTN
B10: PRT-281 (protein)
chain: MVTSVWTKGVTPPAKFTQGEDVFHAPYVANQGWYDITKTFNGKDDLLCGAATAGNMLHWWFDQNKEKIEAYLKKHPDKQKIMFGDQELLDVRKVINTKGDQTNSELFNYFRDKAFPNLSARRIGVMPDLVLDMFINGYYLNVYKTQTTDVNRTYQEKDRRGGIFDAVFTRGDQSKLLTSRHDFKEKNLKEISDLIKKELTEGKALGLSHTYANVRIGHVINLWGADFDSNGNLKAIYVTDSDSNASIGMKKYFVGVNSSGKVAISAKEIKEDNIGAQVLGLFTLSTGQDSWNQTN
B11: PRT-249 (protein)
chain: MVTSVWTKGVTPPTNFTYGEDVLHAPYVANQGWYDITKTFNGKDDLLCGAATAGNMLHWWFDQNKEQIENYLKKHPEKQKINFNGEQMFDVKEAIDTKDSQLDSKLFDYFKEKAFPNLSTKHLGVFPDHVIDMFINGYRLSLLNHGPTPVKRGSKDPRGGIFDAVFTRGDQSKLLTNRHDFKEKTLKEISDLIKQELTEGKALGISHTYANVRINHVINLWGADFDAEGNLEAIYVTDSDSNPSIGMKKYFVGVNSSGKVAISAKEIEEDNIGAQVLGLFTLSTGQDIWNQTN
B12: PRT-266 (protein)
chain: B11 chain with N15D, T17I, V28K, N30G, D108E, F181L, E183N, P243A
B13: PRT-257 (protein)
chain: B11 chain with T39L, N117Y, L143T
B14: PRT-250 (protein)
chain: B11 chain with T39L, V212G
B15: PRT-258 (protein)
chain: B8 chain with N45D, L88M, K157P, V170D, T241S
B16: PRT-313 (protein)
chain: MQITSVWTKGVTPLTPEQFRENNEDVIHAPYLAHQGWYDITKAFDGKDNLLCGAATAGNMLHWWFDQNKTEIEAYLSKHPEKQKIIFGNQELFDLKAAIDTKDSQTNSQLFDYFRDKAFPNLSARQLGVMPDLVLDMFINGYYLNVGKTQSTDVNRPYQDKDKRGGIFDAVFTRGDQTTLLTARHDLKNKGLNDISTIIKQELTEGRALALSHTYANVSISHVINLWGADFNAEGELEAIYVTDSDANPSIGMKKYFVGRNAHGHVAISAKKIEGENIGAQVLGLFTLSSGKDIWQKLS
B17: PRT-273 (protein)
chain: MVTSVWTKGVTPPTDFIYGEDVLHAPYKAGQGWYDITKTFNGKDNLLCGAATAGNMLHWWFDQNKEQIENYLKKHPEKQKIIFNNQELFDLKAAIDTKDSQLDSKLFEYFKEKAFPNLSTKHLGVFPDHVIDMFINGYRLSLLNHGPTPVKRGSKDKRGGIFDAVFTRGVQSKLLTNRHDLKNKTLKEISDLIKQELTEGKALGISHTYANVRINHVINLWGADFDAEGNLEAIYVTDSDTNASIGMKKYFVGVNSSGKVAISAKEIEEDNIGAQVLGLFTLSTGQDIWNQTN

Molecular target: pooled human IgG

Protein	Enzyme Activity Endpoint Assay (purified): Fab'2 [ng/µL]	Enzyme Activity Endpoint Assay (purified): Fc [ng/µL]	Enzyme Activity Endpoint Assay (purified): IgG [ng/µL]	Enzyme Activity Endpoint Assay (purified): scIgG [ng/µL]	Enzyme Activity Endpoint Assay: Fab′2 [ng/µL]	Enzyme Activity Endpoint Assay: Fc [ng/µL]	Enzyme Activity Endpoint Assay: IgG [ng/µL]	Enzyme Activity Endpoint Assay: scIgG [ng/µL]
B1	581	304	90	114				
B2	786	359	91	0				
B3	484	345	338	0				
B4	469	337	139	214				
B5	928	406	0	0				
B6					45	125	12	19
B7					52	131	18	16
B8	0	3	1640	0				
B9	1030	418	0	0				
B10	673	317	347	29				
B11	818	457	0	0				
B12	698	401	0	0				
B13	1050	439	0	0				
B14	313	310	86	454				
B15	762	425	0	0				
B16	409	303	114	328				
B17	782	429	0	0				
